Source: publication PMC9723649

How the values were obtained:
purified protein [1] = substrate: N[C@@H](CO)C(=O)O; assay: purified protein
purified protein [2] = substrate: Nc1ncnc2c1ncn2[C@@H]1O[C@H](COP(=O)(O)OP(=O)(O)OP(=O)(O)O)[C@@H](O)[C@H]1O; assay: purified protein

B1: SARS2 (human mitochondrial seryl-tRNA synthetase, mature form) (Homo sapiens; INS217NLSP/K218R) (protein)
chain: TTEKRNRNLLYEYAREGYSALPQLDIERFCACPEEAAHALELRKGELRSADLPAIISTWQELRQLQEQIRSLEEEKAAVTEAVRALLANQDSGEVQQDPKYQGLRARGREIRKELVHLYPREAQLEEQFYLQALKLPNQTHPDVPVGDESQARVLHMVGDKPVFSFQPRGHLEIGEKLDIIRQNLSPRRLSHVSGHRSYYLRGAGALLQHGLVNFTFNKLLRRGFTPMTVPDLLRGAVFEGCGMTPNANPSQIYNIDPARFKDLNLAGTAEVGLAGYFMDHTVAFRDLPVRMVCSSTCYRAETNTGQEPRGLYRVHHFTKVEMFGVTGPGLEQSSQLLEEFLSLQMEILTELGLHFRVLDMPTQELGLPAYRKFDIEAWMPGRGRFGEVTSASNCTDFQSRRLHIMFQTEAGELQFAHTVNATACAVPRLLIALLESNQQKDGSVLVPPALQSYLGTDRITAPTHVPLQYIGPNQPRKPGLPGQPAVS
Q: With B1 as the protein, how does the Km (purified protein [1]) read?
A: Its Km is 1660 ± 30 µM.

Q: And the Km (purified protein [2])?
A: Its Km is 64.69 ± 4.48 µM.
